In the DeepSol protein solubility set:

Assay: soluble on expression in E. coli; label from the status in PepcDB or PDB records

| Sequence | soluble on expression in E. coli |
| --- | --- |
| MAALMTPGTGAPPAPGDFSGEGSQGLPDPSPEPKQLPELIRMKRDGGRLSEADIRGFVAAVVNGSAQGAQIGAMLMAIRLRGMDLEETSVLTQALAQSGQQLEWPEAWRQQLVDKHSTGGVGDKVSLVLAPALAACGCKVPMISGRGLGHTGGTLDKLESIPGFNVIQSPEQMQVLLDQAGCCIVGQSEQLVPADGILYAARDVTATVDSLPLITASILSKKLVEGLSALVVDVKFGAGAVFPNQEQARELAKTLVGVGASLGLRVAAALTAMDKPLGRCVGHALEVEEALLCMDGAGPPDLRDLVTTLGGALLWLSGHAGTQAQGAARVAAALDDGSALGRFERMLAAQGVDPGLARALCSGSPAERRQLLPRAREQEELLAPADGTVELVRALPLALVLHELGAGRSRAGEPLRLGVGAELLVDVGQRLRRGTPWLRVHRDGPALSGPQSRALQEALVLSDRAPFAAPLPFAELVLPPQQ | soluble |
| MAALRYRRFLKLCEEWPVDETKRGRDLGAYLRQRVAQAFREGENTQIAEPEACDQMYESLARLHSNYYKHKYPRPRDTSFSGLSVEEYKLILSTDTLEEFQEMNKSMWKKLQEKFAPTRPEEKHKAWTRVLSRPRT | soluble |
| MAAQLDPSSEFAALVKQLQREPDNPGLKQAVVKRLPEMQLLAKTNSLALFRLAQVYSPSSSQHKQMILQSAAQGCTNAMLSACEILLKSGAANDLITAAHYMRLIQSSKDSYIIGLGKKLLEKYPDFAEELKSKEVPYQSTLRFFGVQSESNKENEEKIINRPTV | not soluble |
| MAASAAATAAASAATAASAASGSPGSGEGSAGGEKRPAASSAAAASAAASSPAGGGGEAQELLEHCGVCRERLRPERDPRLLPCLHSACSACLGPATPAAANNSGDGGSAGDGAMVDCPVCKQQCYSKDIVENYFMRDSGSKASSDSQDANQCCTSCEDNAPATSYCVECSEPLCETCVEAHQRVKYTKDHTVRSTGPAKTRDGERTVYCNVHKHEPLVLFCESCDTLTCRDCQLNAHKDHQYQFLEDAVRNQRKLLASLVKRLGDKHATLQKNTKEVRSSIRQVSDVQKRVQVDVKMAILQIMKELNKRGRVLVNDAQKVTEGQQERLERQHWTMTKIQKHQEHILRFASWALESDNNTALLLSKKLIYFQLHRALKMIVDPVEPHGEMKFQWDLNAWTKSAEAFGKIVAERPGTNSTGPGPMAPPRAPGPLSKQGSGSSQPMEVQEGYGFGSDDPYSSAEPHVSGMKRSRSGEGEVSGLLRKVPRVSLERLDLDLTSDSQPPVFKVFPGSTTEDYNLIVIERGAAAAAAGQAGTVPPGAPGAPPLPGMAIVKEEETEAAIGAPPAAPEGPETKPVLMPLTEGPGAEGPRLASPSGSTSSGLEVVAPEVTSAPVSGPGILDDSATICRVCQKPGDLVMCNQCEFCFHLDCHLPALQDVPGEEWSCSLCHVLPDLKEEDGSLSLDGADSTGVVAKLSPANQRKCERVLLALFCHEPCRPLHQLATDSTFSMEQPGGTLDLTLIRARLQEKLSPPYSSPQEFAQDVGRMFKQFNKLTEDKADVQSIIGLQRFFETRMNDAFGDTKFSAVLVEPPPLNLPSAGLSSQELSGPGDGP | soluble |
| MACRQEPQPQGPPPAAGAVASYDYLVIGGGSGGLASARRAAELGARAAVVESHKLGGTCVNVGCVPKKVMWNTAVHSEFMHDHADYGFPSCEGKFNWRVIKEKRDAYVSRLNAIYQNNLTKSHIEIIRGHAAFTSDPKPTIEVSGKKYTAPHILIATGGMPSTPHESQIPGASLGITSDGFFQLEELPGRSVIVGAGYIAVEMAGILSALGSKTSLMIRHDKVLRSFDSMISTNCTEELENAGVEVLKFSQVKEVKKTLSGLEVSMVTAVPGRLPVMTMIPDVDCLLWAIGRVPNTKDLSLNKLGIQTDDKGHIIVDEFQNTNVKGIYAVGDVCGKALLTPVAIAAGRKLAHRLFEYKEDSKLDYNNIPTVVFSHPPIGTVGLTEDEAIHKYGIENVKTYSTSFTPMYHAVTKRKTKCVMKMVCANKEEKVVGIHMQGLGCDEMLQGFAVAVKMGATKADFDNTVAIHPTSSEELVTLR | soluble |
| MADDVDNDDKLEKPVDLIWGCELNEQNKTFEFKVEDDEEKCEHQLALRTVCLGDKAKDEFHIVEIVDQEEGAEKVVPIATLKPSILPMATMVGIELDPPVTFRLKAGSGPLYISGQHVAM | soluble |
| MADIAILVAEEYERRMKHTTVGSRSSPVEFDWWKIIPAKMTIAFDKMKIESLKKNFEAKSEFALAISHGFFSA | not soluble |
| MADKHLIREKVLRNLNTIDKVEHRERSIKLAEKLFLLPEWNQAKVIGITLARHPEIETETIILQAKKEGKTVLIPKTFYPSRKMEFKKMDSSHPLTKTKFGILEPHELAETVDKDAIDLLIVPGVVFNKAHFRIGFGGGFYDRFLADFKGETVSLCLYEQQIEFTPESHDKPVSILIEG | soluble |
| MADKKLDTQLVNAGRSKKYTLGAVNSVIQRASSLVFDSVEAKKHATRNRANGELFYGRRGTLTHFSLQQAMCELEGGAGCVLFPCGAAAVANSILAFIEQGDHVLMTNTAYEPSQDFCSKILSKLGVTTSWFDPLIGADIVKHLQPNTKIVFLESPGSITMEVHDVPAIVAAVRSVVPDAIIMIDNTWAAGVLFKALDFGIDVSIQAATKYLVGHSDAMIGTAVCNARCWEQLRENAYLMGQMVDADTAYITSRGLRTLGVRLRQHHESSLKVAEWLAEHPQVARVNHPALPGSKGHEFWKRDFTGSSGLFSFVLKKKLNNEELANYLDNFSLFSMAYSWGGYESLILANQPEHIAAIRPQGEIDFSGTLIRLHIGLEDVDDLIADLDAGFARIV | soluble |
| MADPGSVGHVFRRAFSWLPAQFASQSDAPVGAPRQFRSTEHLSIEAIAAFVDGELRMNAHLRAAHHLSLCAQCAAEVDDQSRARAALRDSHPIRIPSTLLGLLSEIPRCPPEGPSKGSSGGSSQGPPDGAAAGFGDRFADGDGGNRGRQSRVRR | soluble |
| MADYWKDVLPVDPYVVKSRSMLQDIDRQIITQLYQPLIGPVAFSLYMTLWGELEQNRLWGGESTHRQLMGMTQSNLKTIHQEQGKLEGIGLLKVYMKESERQERLFIYELLPPLRPNEFFEDGMLNVFLYNRVGKTKYQQLKQFFTHPAISEDAKDITRPFNHAFESLQPSEWKLTSDMEETVRLAEGSEYTSVGQSPSYTITEDVFDFDLFLAGLSETMIPRKAMTQQVRDTIKKLSYLYGIDPLQMQNVVMSAIDERDVITTEALRKAASDWYQIERNGQLPDLVEKTQPVHLREGEQPAEEDSLDGKLIALLEAISPKKLLQDIADGTEPSKADLKIIEEIMFEQKLEPGVTNVLIYYVMLKTDMKLSKNYIQKIASHWARKKVKTVREAMKLAIEENRQYLEWAEGKTKSSKRNQKVIREEKLPDWMTEKETASDSESGQQKLHPQDLEEQKKKMMEEMQKLKKYSAY | not soluble |
| MAEATDVVLVGGGIMSATLGVLLKELEPSWEITLIERLEDVALESSNAWNNAGTGHSALCELNYAPLGANGIIDPARALNIAEQFHVSRQFWATLVAEGKLEDNSFINAVPHMSLVMNEDHCSYLQKRYDAFKTQKLFENMEFSTDRNKISDWAPLMMRGRDENQPVAANYSAEGTDVDFGRLTRQMVKYLQGKGVKTEFNRHVEDIKRESDGAWVLKTADTRNPDGQLTLRTRFLFLGAGGGALTLLQKSGIPEGKGYGGFPVSGLFFRNSNPETAEQHNAKVYGQASVGAPPMSVPHLDTRNVDGKRHLMFGPYAGFRSNFLKQGSLMDLPLSIHMDNLYPMLCAGWANMPLTKYLLGELRKTKEERFASLLEYYPEANPDDWELITAGQRVQIIKKDSEKGGVLQFGTEIVAHADGSLAALLGASPGASTAVPLMIRLMHQCFPERAPSWEDRLKELVPGYGIKLNENPERADEIIAYTAKVLDI | not soluble |
| MAEDYKLIDNEEKHRYEFQIDDKIAKIDYIKSNNGEIYLVHTEVPASLGGRGVGSQLAEKTLADIERQGLRLVPLCPFVAGYIHKHPEWKRIVMRGIHIK | not soluble |
| MAEEAVDARGEGARFIEKVKSICGNTSRILYKYDEPTDPRYGYLPHERPLDVYLRYGMIVVDKPPGPTSHEVVAWIKRMLGVSRAGHGGTLEPLPAPRGLRGGDILK | soluble |
| MAEETDVIVVGAGLSGLVAATEIADAGKRVIVVDQEGEQSVGGQAFWSFGGLFLVNSPEQRRLGIKDSFDLAMQDWLGTAGFDRDEDHWPRKWAEAYVAFAAGEKRDWLHAMGHRILPVVGWAERGGYDAMGHGNSVPRFHVTWGTGPGIVEPFERRAREAMKSGRLIFKFRHRVDALSITNGTVDGVSGAVLAPDNVERGKSSSRNVVGEFALKAQAVIVASGGIGGNHELVRQNWPKRLGEPPKFMISGVPEHVDGRMIGITEQAGARLINRDRMWHYVEGIQNWSPIWPRHGIRILPGPSSMWFDATGTRLPAPLFPGSDTLGQLKYIMSTGHDYSWFILTQSIIKKEFALSGSEQNPDLTGKSWRMTLRRATNKGAPAPVEAFKSHGVDFIVRDKIDDLVTAMNKLAGSDLLRLEHIKMQIEARDREIANPYVKDAQVMNIHNARRYIGDKLIRTASPHRILDPAHGPLIAVKLNILTRKTLGGFETDLDSRVFGGEGSIIPGLYAVGEAAGFGGGGVHGYRSLEGTFLGGCLFSGRNAGRAAAKAVG | not soluble |
| MAEITEKVLKKPNAIPDVFERKGGSAPTATHYCAGCGHGIIHKLMAEAIDELEIQDRCVLISPVGCAVFAYYYFDCGNIQVAHGRAPAVGTGVSRAEDNAIVMSYQGDGDLASIGLNETIQAANRGEKMAVFFVNNTVYGMTGGQMAPTTLIGEKTVTCQTGRDPRFAGYPIHMCELLSSLKAPVFIERVSVSDIAHIRKAKRAIKKALEIQRDGKGYAFVEILSPCPTNLRQDANAAQKFINEEMEKEFPLQNFRDRSAEVETLNRGESDFSKECLDNIFEVNSKGAEDPSEDLSFE | not soluble |
| MAEKPHMNLVVIGHVDHGKSTLVGHLLYRLGYIEEKKLKELEEQAKSRGKESFKFAWILDKMKEERERGITIDLTFMKFETKKYVFTIIDAPGHRDFVKNMITGASQADAAILVVSARKGEFEAGMSTEGQTREHLLLARTMGIEQIIVAVNKMDAPDVNYDQKRYEFVVSVLKKFMKGLGYQVDKIPFIPVSAWKGDNLIERSPNMPWYNGPTLVEALDQLQPPAKPVDKPLRIPVQNVYSIPGAGTVPVGRVETGVLRVGDKVVFMPPGVVGEVRSIEMHYQQLQQAEPGDNIGFAVRGVSKSDIKRGDVAGHLDKPPTVAEEFEARIFVIWHPSAITVGYTPVIHVHTASVSSRIIEIKAKLDPKTGQVVEQNPQFLKAGDAAIVRFKPVKPLVVEKFSEIPQLGRFAMRDMNRTVGIGIVTDVKPAKVDIKAK | soluble |
| MAELIHSTIGRLLEQTADAYPDRDAVVYPDRNIRYTYAQFDSLCRQTAKGLMRMGIGKGDHVAIWASNISEWLAVQFATAKIGAVLVTVNTNYQAHELDYLLKQSDAAALIIMDSYRGTSYPDIVNSLIPELQEAKPGQLKSERYPFLKTLIYIGNKRLSGMYHWDDTEILAKTVTDAELEERMNSLDKDNVINMQYTSGTTGFPKGVMLTHFNVINNAANIAECMALTSQDRMCIPVPFFHCFGCVLGVLACVSVGAAMIPVQEFDPVTVLKTVEKEKCTVLHGVPTMFIAELHHPDFDAYDLSTLRTGIMAGSPCPSEVMKAVIERMGMKDITIAYGQTEASPVITQTRANDSFIRRVETTGRALPHTEVKIVEPGTCQEVQRGMQGELCTRGYHVMKGYYKDKDATRKAINHDGWLFTGDLAVMDEDGYCRITGRLKDMLIRGGENIYPREIEEFLYQHPAVLDVQVVGVPDAKFGEEAAAWIKLKDGKSVSPDELKAYCKGKIARHKIPRYVIFTDDYPMTASGKIQKY | not soluble |
| MAELWEIVSFLDEYLKISEYPDKSSNGLQVEGKEEVNTIAFAVDACLDTIVKARAFNADMLIVHHGLIWGGVKYVKGLFAKRVKELLKSNMNLYAAHLPLDAHPEVGNNAQLLKLLGLEPKEKFGEYHGVMIGYIGEFEEEKPLPLIAQMLAEKLPVDYVKSYEFGVQEIKRVGVVSGGGGFAVEEASEKGVDLFITGEFTHEDYRAAEDLRLSVIAAGHYATETLGVKALMPILREKFGVKTIFIDSPTGLLEHHHHHH | soluble |
